Experimental data: publication PMC8171064

Molecular target: Saccharomyces cerevisiae Rsm22 protein, C-terminally His6-tagged (construct MA-S17–K628-HHHHHH) (S. cerevisiae) (UniProt P36056)
Assay: SEC-MALS; pooled and concentrated first SEC peak (higher oligomeric form); Superdex 200 10/300 GL; 40 mM Tris pH 7.5, 500 mM NaCl, 5% glycerol

Substance: Saccharomyces cerevisiae Rsm22 protein, C-terminally His6-tagged (construct MA-S17–K628-HHHHHH) (from UniProt P36056 17-628) (enzyme)
- stoichiometry N: 2
